Holding throughout (assay): cross-linking; BS3 (unlabeled, or 50:50 with 2H12-labeled BS3) on the purified native holoenzyme; 150 mM NaPO4, 150 mM KOAc, pH 7.5, 5% glycerol, 2 mM DTT; procedure A 2.7 mM reagent 120 min on ice; trypsin digest, LC-MS/MS, Protein Prospector
What all share (settings): both partners purified

In assay [1] the target is T1, Med17 (Srb4), Mediator Head module subunit (S. cerevisiae, UniProt P32569 1-687).
T1 construct: Med17 (Srb4), S. cerevisiae, endogenous, residues 1-687 spoken of; cross-linking was done after cleavage; also called Med17p; source: endogenous, S. cerevisiae CB010 double-tagged strain; within the purified native holoenzyme; not shown: TAP, N-terminal, cleaved
T1 sequence (looked up): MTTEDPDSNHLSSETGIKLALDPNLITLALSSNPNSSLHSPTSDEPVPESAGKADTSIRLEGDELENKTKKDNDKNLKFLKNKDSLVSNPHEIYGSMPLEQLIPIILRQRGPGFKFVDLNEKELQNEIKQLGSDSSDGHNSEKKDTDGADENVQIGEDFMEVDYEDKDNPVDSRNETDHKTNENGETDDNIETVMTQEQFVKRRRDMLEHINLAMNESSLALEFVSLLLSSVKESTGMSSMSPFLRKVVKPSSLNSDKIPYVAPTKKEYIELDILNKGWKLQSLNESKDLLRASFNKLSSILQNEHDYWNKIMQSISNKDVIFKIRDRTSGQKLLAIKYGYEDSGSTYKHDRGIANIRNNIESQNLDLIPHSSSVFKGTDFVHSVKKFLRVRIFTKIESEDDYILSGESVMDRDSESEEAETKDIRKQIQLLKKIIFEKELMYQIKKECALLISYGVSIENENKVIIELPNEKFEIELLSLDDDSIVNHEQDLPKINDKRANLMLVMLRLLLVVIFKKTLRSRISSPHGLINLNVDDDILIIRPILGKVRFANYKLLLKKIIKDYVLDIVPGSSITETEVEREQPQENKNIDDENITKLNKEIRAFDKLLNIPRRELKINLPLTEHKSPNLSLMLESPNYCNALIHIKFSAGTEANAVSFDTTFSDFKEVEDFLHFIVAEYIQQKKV

The target in assay [2] is T2, Med5 (Nut1), Mediator Tail module subunit (S. cerevisiae, UniProt P53114 1-1132).
T2 construct: Med5 (Nut1), S. cerevisiae, endogenous; source: endogenous, S. cerevisiae CB010 double-tagged strain; within the purified native holoenzyme
T2 sequence (looked up): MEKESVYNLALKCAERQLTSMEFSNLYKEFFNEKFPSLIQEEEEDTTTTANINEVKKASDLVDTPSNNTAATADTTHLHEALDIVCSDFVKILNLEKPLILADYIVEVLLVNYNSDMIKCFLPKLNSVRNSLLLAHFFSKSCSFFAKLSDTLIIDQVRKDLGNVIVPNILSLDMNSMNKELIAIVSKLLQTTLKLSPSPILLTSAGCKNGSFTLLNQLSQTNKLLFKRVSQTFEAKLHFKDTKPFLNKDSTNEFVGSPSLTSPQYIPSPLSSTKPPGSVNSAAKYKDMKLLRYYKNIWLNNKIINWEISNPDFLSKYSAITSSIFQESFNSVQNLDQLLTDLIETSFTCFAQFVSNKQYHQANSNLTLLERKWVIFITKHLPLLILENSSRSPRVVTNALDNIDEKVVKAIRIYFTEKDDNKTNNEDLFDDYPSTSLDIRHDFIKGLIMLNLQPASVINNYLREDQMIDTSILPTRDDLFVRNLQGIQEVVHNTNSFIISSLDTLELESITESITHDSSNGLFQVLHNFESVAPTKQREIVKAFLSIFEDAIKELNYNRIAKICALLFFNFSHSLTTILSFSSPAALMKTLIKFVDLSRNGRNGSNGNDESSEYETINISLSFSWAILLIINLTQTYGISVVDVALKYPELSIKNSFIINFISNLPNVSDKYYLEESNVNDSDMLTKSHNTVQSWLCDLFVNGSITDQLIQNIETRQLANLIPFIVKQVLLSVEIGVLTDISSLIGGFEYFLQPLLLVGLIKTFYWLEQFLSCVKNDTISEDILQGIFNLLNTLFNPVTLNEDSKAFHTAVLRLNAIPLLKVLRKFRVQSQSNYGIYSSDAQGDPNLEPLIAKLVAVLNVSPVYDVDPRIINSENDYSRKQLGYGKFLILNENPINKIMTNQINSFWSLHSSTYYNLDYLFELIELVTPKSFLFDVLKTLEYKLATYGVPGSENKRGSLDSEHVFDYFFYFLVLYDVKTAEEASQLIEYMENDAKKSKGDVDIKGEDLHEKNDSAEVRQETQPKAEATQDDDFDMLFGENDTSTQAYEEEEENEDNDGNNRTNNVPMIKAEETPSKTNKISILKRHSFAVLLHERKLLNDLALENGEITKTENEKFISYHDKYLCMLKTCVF

Assay [3] concerns the target T3, Med14 (Rgr1), Mediator subunit (S. cerevisiae, UniProt P19263 1-1082).
T3 construct: Med14 (Rgr1), S. cerevisiae, endogenous, residues 1-1082 spoken of; source: endogenous, S. cerevisiae CB010 double-tagged strain; within the purified native holoenzyme
T3 sequence (looked up): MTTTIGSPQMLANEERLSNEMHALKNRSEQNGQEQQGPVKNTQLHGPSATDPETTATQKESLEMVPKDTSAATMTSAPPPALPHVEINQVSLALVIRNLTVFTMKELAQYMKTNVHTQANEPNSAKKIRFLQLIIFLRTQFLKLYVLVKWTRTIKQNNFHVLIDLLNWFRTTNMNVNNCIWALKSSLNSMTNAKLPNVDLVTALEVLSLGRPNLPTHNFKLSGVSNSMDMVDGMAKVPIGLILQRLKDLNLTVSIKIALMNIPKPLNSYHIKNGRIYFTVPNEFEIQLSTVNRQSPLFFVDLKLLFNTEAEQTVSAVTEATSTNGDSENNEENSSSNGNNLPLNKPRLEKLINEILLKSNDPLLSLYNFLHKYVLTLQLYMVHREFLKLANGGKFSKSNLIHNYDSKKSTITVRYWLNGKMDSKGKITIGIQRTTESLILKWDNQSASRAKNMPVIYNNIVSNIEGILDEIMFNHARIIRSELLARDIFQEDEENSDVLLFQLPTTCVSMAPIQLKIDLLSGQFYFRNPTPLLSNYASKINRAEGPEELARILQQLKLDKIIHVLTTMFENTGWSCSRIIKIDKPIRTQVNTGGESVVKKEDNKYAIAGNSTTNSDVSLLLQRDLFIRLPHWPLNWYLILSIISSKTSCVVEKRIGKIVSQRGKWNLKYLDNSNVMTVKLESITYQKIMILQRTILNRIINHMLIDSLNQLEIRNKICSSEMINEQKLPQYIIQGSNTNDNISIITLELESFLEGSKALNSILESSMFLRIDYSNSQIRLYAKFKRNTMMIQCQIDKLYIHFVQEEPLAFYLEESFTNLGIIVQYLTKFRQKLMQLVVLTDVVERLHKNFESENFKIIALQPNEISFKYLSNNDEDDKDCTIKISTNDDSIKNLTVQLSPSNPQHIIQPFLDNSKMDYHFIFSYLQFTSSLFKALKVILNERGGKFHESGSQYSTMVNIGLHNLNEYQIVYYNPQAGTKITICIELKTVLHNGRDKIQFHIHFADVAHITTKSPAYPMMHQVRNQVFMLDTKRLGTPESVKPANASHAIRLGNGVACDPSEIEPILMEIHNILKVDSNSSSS

The target in assay [4] is T4, Med1, Mediator Middle module subunit (S. cerevisiae, UniProt Q12321 1-566).
T4 construct: Med1, S. cerevisiae, endogenous; source: endogenous, S. cerevisiae CB010 double-tagged strain; within the purified native holoenzyme
T4 sequence (looked up): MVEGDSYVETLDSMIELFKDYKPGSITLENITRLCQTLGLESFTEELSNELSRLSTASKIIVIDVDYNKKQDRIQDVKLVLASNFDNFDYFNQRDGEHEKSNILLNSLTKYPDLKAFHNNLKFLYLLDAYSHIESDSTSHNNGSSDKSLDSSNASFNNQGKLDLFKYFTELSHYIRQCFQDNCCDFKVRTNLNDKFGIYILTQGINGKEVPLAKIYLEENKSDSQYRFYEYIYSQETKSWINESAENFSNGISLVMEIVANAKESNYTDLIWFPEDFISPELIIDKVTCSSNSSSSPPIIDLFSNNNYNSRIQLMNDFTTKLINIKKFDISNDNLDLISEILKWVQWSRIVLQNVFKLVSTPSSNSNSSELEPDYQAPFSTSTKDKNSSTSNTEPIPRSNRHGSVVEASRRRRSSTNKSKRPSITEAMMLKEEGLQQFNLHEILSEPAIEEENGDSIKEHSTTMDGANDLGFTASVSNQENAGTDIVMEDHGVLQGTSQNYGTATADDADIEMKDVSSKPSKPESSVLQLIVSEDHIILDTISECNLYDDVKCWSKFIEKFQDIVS

B1: Med7, Mediator Middle module subunit (natural protein, S. cerevisiae, UniProt Q08278 1-222, looked up)
chain: MSNDPGNEVSSLYPPPPPYVKFFTQSNLEKLPKYKEKKAASAKQTAPNNSNGGSEEEITCALDYLIPPPMPKNQQYRAFGSIWQVKDQLPDLESMGLTQLYKKSTENESTNYQYKIQELRKLLKSLLLNYLELIGVLSINPDMYERKVENIRTILVNIHHLLNEYRPHQSRESLIMLLEEQLEYKRGEIREIEQVCKQVHDKLTSIQDTLRTGSQSPPSSSQ
notes: Med7, S. cerevisiae, endogenous; source: endogenous, S. cerevisiae CB010 double-tagged strain; within the purified native holoenzyme
As to B1, in assay [1], the binding result is “binds”.

B2: Med15 (Gal11), Mediator Tail module subunit (natural protein, S. cerevisiae, UniProt P19659 1-1081, looked up)
chain: MSAAPVQDKDTLSNAERAKNVNGLLQVLMDINTLNGGSSDTADKIRIHAKNFEAALFAKSSSKKEYMDSMNEKVAVMRNTYNTRKNAVTAAAANNNIKPVEQHHINNLKNSGNSANNMNVNMNLNPQMFLNQQAQARQQVAQQLRNQQQQQQQQQQQQRRQLTPQQQQLVNQMKVAPIPKQLLQRIPNIPPNINTWQQVTALAQQKLLTPQDMEAAKEVYKIHQQLLFKARLQQQQAQAQAQANNNNNGLPQNGNINNNINIPQQQQMQPPNSSANNNPLQQQSSQNTVPNVLNQINQIFSPEEQRSLLQEAIETCKNFEKTQLGSTMTEPVKQSFIRKYINQKALRKIQALRDVKNNNNANNNGSNLQRAQNVPMNIIQQQQQQNTNNNDTIATSATPNAAAFSQQQNASSKLYQMQQQQQAQAQAQAQAQAQAQAQAQAQAAQAAQAQAQAQAQAQAQAQAQAQAQAQAQAQAQAQAQAHAQHQPSQQPQQAQQQPNPLHGLTPTAKDVEVIKQLSLDASKTNLRLTDVTNSLSNEEKEKIKMKLKQGQKLFVQVSNFAPQVYIITKNENFLKEVFQLRIFVKEILEKCAEGIFVVKLDTVDRLIIKYQKYWESMRIQILRRQAILRQQQQMANNNGNPGTTSTGNNNNIATQQNMQQSLQQMQHLQQLKMQQQQQQQQQQQQQQQQQQQQQQQHIYPSSTPGVANYSAMANAPGNNIPYMNHKNTSSMDFLNSMENTPKVPVSAAATPSLNKTINGKVNGRTKSNTIPVTSIPSTNKKLSISNAASQQPTPRSASNTAKSTPNTNPSPLKTQTKNGTPNPNNMKTVQSPMGAQPSYNSAIIENAFRKEELLLKDLEIRKLEISSRFKHRQEIFKDSPMDLFMSTLGDCLGIKDEEMLTSCTIPKAVVDHINGSGKRKPTKAAQRARDQDSIDISIKDNKLVMKSKFNKSNRSYSIALSNVAAIFKGIGGNFKDLSTLVHSSSPSTSSNMDVGNPRKRKASVLEISPQDSIASVLSPDSNIMSDSKKIKVDSPDDPFMTKSGATTSEKQEVTNEAPFLTSGTSSEQFNVWDWNNWTSAT
notes: Med15 (Gal11), S. cerevisiae, endogenous; source: endogenous, S. cerevisiae CB010 double-tagged strain; within the purified native holoenzyme
Take B2: the binding result in assay [2] and in assay [3] was “binds” each time.

B3: Med4, Mediator Middle module subunit (natural protein, S. cerevisiae, UniProt Q12343 1-284, looked up)
chain: MSVQDTKAVEFSMGHIRSSSVSLVAEATSNTNSEDKLSKVQLYEDLCRYEDTLSKLVESVDRFKPNLDIAKDLIRTDEALFENVKLLAEYDNIYRNLQKIDKDSEELDSKTRKILEILNECHDELKALPMLEQVEFEKNTILQQRSKINSTELLDYATKLSKFTKIPPTFDKGAVGPNNFIWPAEDALRRGMLAMASLHSKELTRIPGEEVEETEVPTVPPSQSEEQKGQMAKKEGTPKTDSFIFDGTAKEVGDEADNTKDKEKEENNDDALDLDLDLFDPDDF
notes: Med4, S. cerevisiae, endogenous; source: endogenous, S. cerevisiae CB010 double-tagged strain; within the purified native holoenzyme
On to B3, for which the binding result in assay [4] and in assay [3] was “binds” each time.

B4: Med9 (Cse2), Mediator Middle module subunit (natural protein, S. cerevisiae, UniProt P33308 1-149, looked up)
chain: MNLQNNVLNQIHQILLPTNPTLDKPNAEATKEEFSSAENRDEKDYLTNQQPKNLSTPSTSSNGEFIPHIFYSLHQIRKDPNNLSNQLETLTGSIRHRLKLCKSLISENEDTKDLLSKSPSEWQDIIHQREQELQIKRDVLDDLYRKLQR
notes: Med9 (Cse2), S. cerevisiae, endogenous; source: endogenous, S. cerevisiae CB010 double-tagged strain; within the purified native holoenzyme
As to B4, the binding result in assay [4] and in assay [3] was “binds” in each case.

Source of the values: paper PMC4631838, “Molecular architecture of the yeast Mediator complex” (eLife, 2015).
